Results from patent US20100323905A1 (published 2010).
Residue numbers refer to the chain shown, from its start. Blank lines part the entries; values can stand above or below the binder they belong to.

What was measured:
[1] = target: T1, recombinant full-length human PABPN1 (nuclear poly(A)-binding protein 1), T7-tagged and His-tagged, produced … (human, UniProt Q86U42 1-306); test: BIAcore affinity measurement (SPR)
T1 construct: also called recombinant PABPN1; T7-tagged PABPN1; not shown: T7 Tag and His Tag from vector pET28a
T1 sequence (looked up): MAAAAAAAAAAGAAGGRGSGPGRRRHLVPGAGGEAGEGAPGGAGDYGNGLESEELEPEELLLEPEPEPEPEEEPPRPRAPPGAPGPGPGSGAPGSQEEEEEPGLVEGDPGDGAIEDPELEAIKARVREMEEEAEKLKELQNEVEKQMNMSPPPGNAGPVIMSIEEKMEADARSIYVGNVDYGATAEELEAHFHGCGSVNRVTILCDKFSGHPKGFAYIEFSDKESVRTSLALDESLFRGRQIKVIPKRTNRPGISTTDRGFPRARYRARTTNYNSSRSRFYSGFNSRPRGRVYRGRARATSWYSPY

[2] = target: T1, recombinant full-length human PABPN1 …; test: BIAcore affinity measurement (SPR); remark: listed apart in the source
beta amyloid Aβ 1-42 = target: T2, beta amyloid Aβ 1-42 (UniProt P05067 672-713); test: ELISA
T2 construct: domain: Aβ 1-42; The numbers 1-42 count on the Aβ peptide, not on the precursor; In immunohistochemistry the target is amyloid deposited in human brain sections; also called amyloid b-42; Amyloid-b-42

[3] = target: T3, native PABPN1 purified from bovine calf thymus (bovine, UniProt Q28165 2-306); test: affinity measurement (Biacore)
T3 sequence (looked up): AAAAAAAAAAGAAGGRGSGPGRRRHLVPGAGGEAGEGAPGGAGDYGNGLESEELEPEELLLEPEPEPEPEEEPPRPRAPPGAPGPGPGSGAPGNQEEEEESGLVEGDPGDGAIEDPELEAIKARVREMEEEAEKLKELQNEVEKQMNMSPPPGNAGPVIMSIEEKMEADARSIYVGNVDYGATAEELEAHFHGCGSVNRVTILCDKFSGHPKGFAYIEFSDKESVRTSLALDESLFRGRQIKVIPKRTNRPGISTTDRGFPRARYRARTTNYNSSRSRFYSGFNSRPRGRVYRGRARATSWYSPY

[4] = target: T4, PABPN1 point mutant V126S (UniProt Q86U42 1-306, limits assumed); test: Western blot of purified mutant proteins
T4 sequence (looked up): T1 sequence (looked up) with V126S
Description: (§1) Proteins were separated by SDS-PAGE followed by Coomassie Brilliant Blue staining or transfer to PVDF Western blotting membranes (Roche Diagnostics, Almere, The Netherlands) using the Mini-PROTEAN 8 system for gel electrophoresis and the Mini Trans-Blot Cell for blotting of the proteins (Bio-Rad Laboratories, Hercules, Calif., USA). […] For phage detection a 10,000-fold dilution of a HRP-conjugated monoclonal antibody which binds to the phage coat protein was used (Amersham Biosciences, Uppsala, Sweden).

[5] = target: T5, PABPN1 point mutant M129A (UniProt Q86U42 1-306, limits assumed); test: Western blot of purified mutant proteins
T5 sequence (looked up): T1 sequence (looked up) with M129A
Description: as §1

[6] = target: T1, recombinant full-length human PABPN1 …; test: BIAcore affinity measurement (SPR, CM5 chip)
Protocol: Affinities were calculated using Biacore evaluation software.

[7] = target: T3, native PABPN1 purified from bovine calf …; test: sandwich ELISA: 3F5 coated, native PABPN1 captured

T2 sequence (P05067 672-713 limits assumed): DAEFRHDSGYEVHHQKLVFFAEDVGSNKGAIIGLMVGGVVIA

B1: VHH 3E9 (VHH)
VHH: QVQLQESGGGLVQPGGSLRLSCVASGFTFSDNAMSWVRRAPGKGLEWVSAINRAGDSARYADSVKGRFTISRDNAKNTLYLQMNSLKPEDTAVYYCTNGGNYRGQGTQVTVSA
Kd [1]: 14 nM

B2: VHH 18 (VHH)
VHH: AVQLVESGGGLVQAGGSLRLSCAASGSIVSLATMGWYRQAPGNQRELVATMSSSGITSYAGSVKGRFTYSRDNAKNTVDLQMNSLKPEDTAVYYCKYSSRWNIYWGQGTLVTVSS
notes: Alignment gaps removed
Kd [2]: 7 nM | Kd [1]: 7 nM

B3: VHH 3A9 (VHH)
VHH: QVQLVESGGDLVQAGGSLRLSCAASGHTFDSYGMGWFRQRPGKGREFVAAITMIGGSTHYADSAKGRFTISRDNTKNTISLQMNSLKPEDTAVYYCHAFSRSRFEGYWGQGIQVTVSS
Kd [1]: 8 nM

B4: VHH 11D (VHH)
VHH: AVQLVESGGGLVQAGGSLRLSCAASQRTFSSYVMGWFRQAPGKEREFVAAIGWSGGSTAYADSVKGRFTISRDNARNTVYLQMNSLKPEDTAVYYCASAPTRWVPRDSRFYDRWGQGTRVTVSS
notes: Selected against amyloid b-42
binding result (beta amyloid Aβ 1-42): binds

B6: VHH 08 (VHH)
VHH: EVQLVESGGGLVQPGGSLRLSCVASGRTSRISRMAWFRQVPGNERELVATMSSSGITSYAGSVKGRFTISRDNAKNTVDLQMNSLKPEDTAVYYCKYSSRWNIYWGQGTQVTVSS
notes: Alignment gaps removed
Kd [2]: 57 nM | Kd [1]: 57 nM

B7: VHH 3F5 (VHH)
VHH: EVQLVESGGGLVQAGGSLRLSCAASGRTFSGYGMGWFRQAPGKEREFVAAISWRGGNTYYADSVKGRFTISRDNAKNTVWLQMNSLKPEDTAVYYCSGFVRTRDDPSRIRNYWGQGTQVTVST
notes: also called anti-PABPN1 VHH (3F5)
Kd [3]: 5 nM | binding result [4]: no binding | binding result [5]: no binding | Kd [6]: 5 nM

Results, then the binder that gave them:

binding result (beta amyloid Aβ 1-42): binds
B5: VHH 3A (VHH)
VHH: B4 VHH with Q13R, A14D, Q26G
notes: Selected against Aβ 1-42; 15N-labeled in the NMR titration; also called anti-Aβ1-42 VHH 3A

Kd [2]: 11 nM | Kd [1]: 11 nM | binding result [7]: binds
B8: VHH 29 (VHH)
VHH: QVQLVESGGGLVQAGDSLRLSCAASGRTFSSYVMGWFRQAPGKEREFVAAVTGGGISTYYADSVKGRFTISRDNAKNTVYLQMNSLTPEDTAVYYCYARRLNSWGQGTQVTISS
notes: also called antibody fragment 29
